Key:
[1] = biological target: 6g061180 tomato ABA receptor, recombinant, purified for size exclusion chromatography (tomato (Solanum lycopersicum)); assay: SEC; Superdex200 10/30 in 25mM TRIS-HCl pH 8.0, 200mM NaCl, 5mM beta-mercaptoethanol, in the absence of ABA; about 1mg loaded of 8g076960, 6g061180 or 6g050500 (concentrated to 10mg ml^-1), 0.1mg of 12g055990 (0.7mg ml^-1)
[2] = biological target: 8g076960 tomato ABA receptor, recombinant, purified for size exclusion chromatography (tomato (Solanum lycopersicum)); assay: as above
[3] = biological target: T1, 8g076960 (Sl08g076960) with ΔN 12g096020 (Solanum lycopersicum, UniProt A0A3Q7HTY9); assay: receptor-mediated PP2C inhibition, RRA(phosphoT)VA phosphopeptide, molybdate dye; format: biochemical; details: agonist; 0.5 μM PP2C, 2 μM receptor, 0.1-10 μM ligand; 10 mM MgCl2, pH 7.5, 30 °C
T1 construct: gene LOC101268417; PP2C N-terminally deleted catalytic core 178-509; with Protein phosphatase 2C HAB1-like (clade A)

[4] = biological target: T2, 6g061180 (Sl06g061180) with ΔN 12g096020 (Solanum lycopersicum, UniProt A0A3Q7HQZ7); assay: as above; format: biochemical; details: agonist; 0.5 μM PP2C, 2 μM receptor, 0.1-10 μM ligand; 10 mM MgCl2, pH 7.5, 30 °C
T2 construct: gene LOC101267127; PP2C N-terminally deleted catalytic core 178-509; with Protein phosphatase 2C HAB1-like (clade A)

[5] = biological target: the molecule itself; assay: SEC; Superdex200 10/30 in 25mM TRIS-HCl pH 8.0, 200mM NaCl, 5mM beta-mercaptoethanol, in the absence of ABA; about 1mg loaded of 8g076960, 6g061180 or 6g050500 (concentrated to 10mg ml^-1), 0.1mg of 12g055990 (0.7mg ml^-1)

T1 sequence (A0A3Q7HTY9 entry or part of it, stated change not applied): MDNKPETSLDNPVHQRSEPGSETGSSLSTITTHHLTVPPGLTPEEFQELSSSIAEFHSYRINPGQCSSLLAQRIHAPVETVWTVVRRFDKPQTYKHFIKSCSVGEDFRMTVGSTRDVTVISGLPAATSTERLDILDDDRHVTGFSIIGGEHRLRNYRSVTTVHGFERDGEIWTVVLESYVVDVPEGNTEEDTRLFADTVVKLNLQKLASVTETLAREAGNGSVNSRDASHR
T2 sequence (A0A3Q7HQZ7 entry or part of it, stated change not applied): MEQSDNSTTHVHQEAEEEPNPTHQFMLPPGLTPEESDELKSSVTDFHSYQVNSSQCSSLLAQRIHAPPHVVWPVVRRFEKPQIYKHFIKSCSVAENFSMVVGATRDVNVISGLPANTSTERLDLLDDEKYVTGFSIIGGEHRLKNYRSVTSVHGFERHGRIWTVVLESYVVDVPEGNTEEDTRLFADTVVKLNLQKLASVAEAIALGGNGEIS

6g061180 tomato ABA receptor, recombinant, purified for size exclusion chromatography
stoichiometry N [1]: 2

8g076960 tomato ABA receptor, recombinant, purified for size exclusion chromatography
stoichiometry N [2]: 2

CCCN1C(=O)CCc2cc(NS(=O)(=O)Cc3ccc(C)cc3)ccc21 [quinabactin]
% PP2C activity [3]: QB inhibited (compared with ABA) ΔN12g096020 phosphatase activity efficiently through the dimeric tomato receptors 8g076960
% PP2C activity [4]: efficiently through the dimeric tomato receptors 8g076960 and 6g061180

B1: 6g050500 tomato ABA receptor, recombinant, purified for size exclusion chromatography (receptor)
chain: MPSSLQLHRINPTTATLAVKQPQLSQATTWFSPVSTSVPDNVLHHHTHVVGPNQCCSAVLQSISAPIDTVWSLVRRFDNPQAYKHFLKSCHVIVGDGDVGTLREVRVVSGLPAGSSTERLEILDDEKHVLSFSVVGGDHRLNNYRSVTTLHRAAEEGSTVVVESYVVDVPQGNTKEETCVFVDTIVRCNLQSLAQIAQNLAKTSKNHDEDPQLKIHRLVDFV
stoichiometry N [5]: 2

Reference: paper PMC4112642, “Tomato PYR/PYL/RCAR abscisic acid receptors show high expression in root, differential sensitivity to the abscisic acid agonist quinabactin, and the capability to enhance plant drought resistance” (Journal of Experimental Botany, 2014)
